{
  "source": "the Immune Epitope Database (IEDB)",
  "key": {"[1]": {"target": "HLA-B*15:01", "test": "IEDB peptide-MHC binding, purified MHC/competitive/radioactivity; filed as Kd, often an IC50 or EC50 that approximates it; ≥ and ≤ were set here for values at or beyond the usual limits of such assays"}, "[2]": {"target": "HLA-A*30:02", "test": "IEDB peptide-MHC binding, purified MHC/competitive/radioactivity; filed as Kd, often an IC50 or EC50 that approximates it; ≥ and ≤ were set here for values at or beyond the usual limits of such assays"}, "[3]": {"target": "HLA-B*40:01", "test": "IEDB peptide-MHC binding, purified MHC/competitive/radioactivity; filed as Kd, often an IC50 or EC50 that approximates it; ≥ and ≤ were set here for values at or beyond the usual limits of such assays"}, "[4]": {"target": "HLA-B*07:02", "test": "IEDB peptide-MHC binding, purified MHC/competitive/radioactivity; filed as Kd, often an IC50 or EC50 that approximates it; ≥ and ≤ were set here for values at or beyond the usual limits of such assays"}, "[5]": {"target": "HLA-B*51:01", "test": "IEDB peptide-MHC binding, purified MHC/competitive/radioactivity; filed as Kd, often an IC50 or EC50 that approximates it; ≥ and ≤ were set here for values at or beyond the usual limits of such assays"}, "[6]": {"target": "HLA-B*35:01", "test": "IEDB peptide-MHC binding, purified MHC/competitive/radioactivity; filed as Kd, often an IC50 or EC50 that approximates it; ≥ and ≤ were set here for values at or beyond the usual limits of such assays"}, "[7]": {"target": "HLA-A*30:01", "test": "IEDB peptide-MHC binding, purified MHC/competitive/radioactivity; filed as Kd, often an IC50 or EC50 that approximates it; ≥ and ≤ were set here for values at or beyond the usual limits of such assays"}, "[8]": {"target": "HLA-A*29:02", "test": "IEDB peptide-MHC binding, purified MHC/competitive/radioactivity; filed as Kd, often an IC50 or EC50 that approximates it; ≥ and ≤ were set here for values at or beyond the usual limits of such assays", "details": "source organism: Mammarenavirus machupoense"}, "[9]": {"target": "HLA-A*26:01", "test": "IEDB peptide-MHC binding, purified MHC/competitive/radioactivity; filed as Kd, often an IC50 or EC50 that approximates it; ≥ and ≤ were set here for values at or beyond the usual limits of such assays", "details": "source organism: Mammarenavirus machupoense"}, "[10]": {"target": "HLA-A*24:02", "test": "IEDB peptide-MHC binding, purified MHC/competitive/radioactivity; filed as Kd, often an IC50 or EC50 that approximates it; ≥ and ≤ were set here for values at or beyond the usual limits of such assays", "details": "source organism: Mammarenavirus machupoense"}, "[11]": {"target": "HLA-A*32:01", "test": "IEDB peptide-MHC binding, purified MHC/competitive/radioactivity; filed as Kd, often an IC50 or EC50 that approximates it; ≥ and ≤ were set here for values at or beyond the usual limits of such assays", "details": "source organism: Mammarenavirus machupoense"}, "[12]": {"target": "HLA-A*01:01", "test": "IEDB peptide-MHC binding, purified MHC/competitive/radioactivity; filed as Kd, often an IC50 or EC50 that approximates it; ≥ and ≤ were set here for values at or beyond the usual limits of such assays"}, "[13]": {"target": "HLA-A*23:01", "test": "IEDB peptide-MHC binding, purified MHC/competitive/radioactivity; filed as Kd, often an IC50 or EC50 that approximates it; ≥ and ≤ were set here for values at or beyond the usual limits of such assays", "details": "source organism: Mammarenavirus machupoense"}, "[14]": {"target": "HLA-B*46:01", "test": "IEDB peptide-MHC binding, purified MHC/direct/fluorescence; filed as Kd, often an IC50 or EC50 that approximates it; ≥ and ≤ were set here for values at or beyond the usual limits of such assays", "details": "source organism: West Nile virus"}, "[15]": {"target": "HLA-B*44:02", "test": "IEDB peptide-MHC binding, purified MHC/competitive/radioactivity; filed as Kd, often an IC50 or EC50 that approximates it; ≥ and ≤ were set here for values at or beyond the usual limits of such assays"}, "[16]": {"target": "HLA-B*44:03", "test": "IEDB peptide-MHC binding, purified MHC/competitive/radioactivity; filed as Kd, often an IC50 or EC50 that approximates it; ≥ and ≤ were set here for values at or beyond the usual limits of such assays", "details": "source organism: Dengue virus 4 Dominica/814669/1981"}, "[17]": {"details": "source organism: Dengue virus 3 Martinique/1243/1999"}, "[18]": {"details": "source organism: Dengue virus 1 Brazil/97-11/1997"}, "[19]": {"details": "source organism: Dengue virus 2 Jamaica/1409/1983"}, "[20]": {"details": "source organism: Dengue virus 4 Philippines/H241/1956"}, "[21]": {"details": "source organism: Dengue virus 4 Dominica/814669/1981"}, "[22]": {"details": "source organism: Mammarenavirus machupoense"}, "[23]": {"details": "source organism: Vaccinia virus WR"}, "[24]": {"details": "source organism: Dengue virus 1 Singapore/S275/1990"}},
  "data": [
    {"sequence": "SQHNHRPGY", "values": [
      {"measurement": "Kd", "setting": "[1]; [17]", "result": 91.2, "unit": "nM"},
      {"measurement": "Kd", "setting": "[2]; [17]", "result": 28.7, "unit": "nM"}
    ]},
    {"sequence": "VEDERFWDL", "values": [
      {"measurement": "Kd", "setting": "[3]; [18]", "result": 155, "unit": "nM"}
    ]},
    {"sequence": "TPQDNQLTYV", "values": [
      {"measurement": "Kd", "setting": "[4]; [19]", "result": 1330, "unit": "nM"},
      {"measurement": "Kd", "setting": "[5]; [19]", "result": 16400, "unit": "nM"}
    ]},
    {"sequence": "MAVFKMSPGY", "values": [
      {"measurement": "Kd", "setting": "[6]; [20]", "result": 667, "unit": "nM"},
      {"measurement": "Kd", "setting": "[2]; [20]", "result": 501, "unit": "nM"}
    ]},
    {"sequence": "RQEKGKSLLF", "values": [
      {"measurement": "Kd", "setting": "[1]; [19]", "result": 42.3, "unit": "nM"}
    ]},
    {"sequence": "MATFKMRPMF", "values": [
      {"measurement": "Kd", "setting": "[7]; [18]", "result": 1790, "unit": "nM"}
    ]},
    {"sequence": "LPVWLAHKVA", "values": [
      {"measurement": "Kd", "setting": "[6]; [17]", "result": 6680, "unit": "nM"}
    ]},
    {"sequence": "TPRGAVMDII", "values": [
      {"measurement": "Kd", "setting": "[4]; [21]", "result": 8.05, "unit": "nM"},
      {"measurement": "Kd", "setting": "[5]; [21]", "result": 1350, "unit": "nM"}
    ]},
    {"sequence": "CTNFKTQLV", "values": [
      {"measurement": "Kd", "setting": "[8]", "result": 4460, "unit": "nM"},
      {"measurement": "Kd", "setting": "[9]", "result": 13200, "unit": "nM"},
      {"measurement": "Kd", "setting": "[10]", "result": "≥ 77500", "unit": "nM"},
      {"measurement": "Kd", "setting": "[2]; [22]", "result": 2290, "unit": "nM"},
      {"measurement": "Kd", "setting": "[11]", "result": "≥ 77800", "unit": "nM"},
      {"measurement": "Kd", "setting": "[12]; [22]", "result": 1150, "unit": "nM"},
      {"measurement": "Kd", "setting": "[7]; [22]", "result": 1040, "unit": "nM"},
      {"measurement": "Kd", "setting": "[13]", "result": "≥ 77700", "unit": "nM"}
    ]},
    {"sequence": "HAIVINPFV", "values": [
      {"measurement": "Kd", "setting": "[7]; [23]", "result": 221, "unit": "nM"}
    ]},
    {"sequence": "YQPEREKVY", "values": [
      {"measurement": "Kd", "setting": "[14]", "result": "≥ 20000", "unit": "nM"}
    ]},
    {"sequence": "GESSPSPTV", "values": [
      {"measurement": "Kd", "setting": "[15]; [17]", "result": 744, "unit": "nM"},
      {"measurement": "Kd", "setting": "[3]; [17]", "result": 9.6, "unit": "nM"}
    ]},
    {"sequence": "LARWGTFKK", "values": [
      {"measurement": "Kd", "setting": "[7]; [17]", "result": 316, "unit": "nM"}
    ]},
    {"sequence": "SPAATQKAAL", "values": [
      {"measurement": "Kd", "setting": "[4]; source organism: Dengue virus 4 Singapore/8976/1995", "result": 3.66, "unit": "nM"}
    ]},
    {"sequence": "SLVMLLVHY", "values": [
      {"measurement": "Kd", "setting": "[1]; [20]", "result": 419, "unit": "nM"},
      {"measurement": "Kd", "setting": "[2]; [20]", "result": 1600, "unit": "nM"}
    ]},
    {"sequence": "IWGRKSWPLN", "values": [
      {"measurement": "Kd", "setting": "[7]; [18]", "result": 2050, "unit": "nM"}
    ]},
    {"sequence": "RGRIGRNPK", "values": [
      {"measurement": "Kd", "setting": "[7]; [19]", "result": 18.7, "unit": "nM"}
    ]},
    {"sequence": "MELIDGISL", "values": [
      {"measurement": "Kd", "setting": "[16]", "result": 226, "unit": "nM"},
      {"measurement": "Kd", "setting": "[15]; [21]", "result": 375, "unit": "nM"},
      {"measurement": "Kd", "setting": "[3]; [21]", "result": 2.29, "unit": "nM"}
    ]},
    {"sequence": "IMMLKLLTDF", "values": [
      {"measurement": "Kd", "setting": "[1]; source organism: Dengue virus 1 Nauru/West Pac/1974", "result": 18.8, "unit": "nM"}
    ]},
    {"sequence": "GPGHEEPVPM", "values": [
      {"measurement": "Kd", "setting": "[6]; [17]", "result": 7200, "unit": "nM"}
    ]},
    {"sequence": "VTNIELEPPF", "values": [
      {"measurement": "Kd", "setting": "[7]; [20]", "result": 468, "unit": "nM"}
    ]},
    {"sequence": "FTTRHRKPTY", "values": [
      {"measurement": "Kd", "setting": "[12]; [20]", "result": "≥ 23600", "unit": "nM"},
      {"measurement": "Kd", "setting": "[7]; [20]", "result": 1960, "unit": "nM"}
    ]},
    {"sequence": "KYRYGTFLY", "values": [
      {"measurement": "Kd", "setting": "[7]; [23]", "result": 1.07, "unit": "nM"}
    ]},
    {"sequence": "TPNLAERVL", "values": [
      {"measurement": "Kd", "setting": "[4]; [24]", "result": 114, "unit": "nM"}
    ]},
    {"sequence": "KEISNMLNIM", "values": [
      {"measurement": "Kd", "setting": "[3]; [24]", "result": 8.34, "unit": "nM"}
    ]}
  ]
}
